{"source": "the DeepSol protein solubility set"}
{"assay": "soluble on expression in E. coli; label from the status in PepcDB or PDB records"}
{"sequence": "MKILTIDTSTSTCSAALSIDGRCAGEYLLEAERHPSERLLAAVDILLRDTGMELEELDGFGVALGPGSFTGVRIGVATVKGLALATGKPAVGFSSLAMLALNLPWSLLPVCTLFDARKKEVYGGLYRVTSAPEPVIVDRVAPPERFLEAIEGEAIFVGDGAIRYREAIESILGHRAFFAPAHCHQPRASAGALLAGELLRTGAAVPLPLLNPTYIRPSEAELARMCQKAVAAALEHHHHHH", "soluble on expression in E. coli": "not soluble"}
{"sequence": "MTSLTNAVFKRYLAVTPSAHQALKTRIKKKSSSFDKFFPQQSNSRKKQWETLNEDKASWFKRKYAHVHAREQDRAADPYGKKKAHVEKLKEIKNQAKLNQKSHKSKFQNKDIALKLMNDNPIFEYVYGTNSVYAALLNPSRNCHSRLLYHGTIPSKFLQIVDELKVTTELVDKHRLNLLTNYGVHNNIALETKPLQPVEIAYLGDMDTSSAALSIHELGFNNENIPHELPYGTKTDAKKFPLGLYLDEITDPHNIGAIIRSAYFLGVDFIVMSRRNCSPLTPVVSKTSSGALELLPIFYVDKPLEFFTKSQEMGGWTFITSHLANATSEKYTVGKTISMHDLNGLCNELPVVLVVGNESQGVRTNLKMRSDFFVEIPFGGIEKGNRAPEPIVDSLNVSVATALLIDNILTCK", "soluble on expression in E. coli": "soluble"}
{"sequence": "MVLFSEDHIQETRRRGRIEVICGSMFSGKTEELIRRMKRAKFARQRVEIFKPAIDTRYSEEDVVSHDSHSIASTPIDSSASILLFTSEIDVVGIDEAQFFDDGLIDVCRQLANNGIRVIIAGLDMDFKGNPFGPMPQLCAIADEVSKVHAICVKCGDLASFSHRTVKNDKQVLLGETAEYEPLCRECYLRARGEDGQKI", "soluble on expression in E. coli": "not soluble"}
{"sequence": "MKNLENYFDKAELQHFFECLTDDDNTPQASVFFRLAAFTGMRKSEMLCLEWSDIDFSNHTIRVNKTQSRGDGARLLVQAPKTARSNRTVYLDPTTIKILQHWQVDQKKWLLRFGFNINQGNHYVFANENNEMFQPSKPRKWLEHTLTKYDLKHVTVHAFRHTYATLAFEAHASIKSVQDQLGHSSYRTTLDIYTAVTAKQKNEATEKLANYLNFLEHHHHHH", "soluble on expression in E. coli": "not soluble"}
{"sequence": "MGSDKIHHHHHHMSNPLLKQICELDVFTLLVFKTIFDTGHANSAAKALDVSAPKISRCLNALRLTFNDELFYRRQQGLKPTPLAESLYAAICQFTNSVYNLEQSALQIQNTHNTTDLPLHIAVSNELLSFLAPQLSSPDVITQLGKIRLHKWQENSAELIHAGELDFGITLENADNKELSYTRLGCISGIYVVASKHHPIWQTELSITLEHICRHPFLCLDLKGFNSKVDPLEFFCQRQGILLPSIDRVIDREEWYAHLLTIQSVAFCSSIDMHTVKHMPGLKLVPLSLTELHRLHDSMLPPQYYLVEKPRARRRYSQTQCDIVVSPLITTLIPTL", "soluble on expression in E. coli": "not soluble"}
{"sequence": "YVTNDLANSMKDRGTMLADSLRVDFAIINDPSKIPVSGTGPYTYTFYVKNIGKDSIAFSSNSIQVFIDGNIIPPANLTFTDVNGNSISSLDPGEVGAIQVTLGNALDPGYHRIQVVLENGKERVLIFKI", "soluble on expression in E. coli": "not soluble"}
{"sequence": "MTSVGPGQPQKELIRAQNGTYEVTKPLATGTFGSIYKVKRESDGKFFAVKCEALNMKSSLLRQMSVVLASIHHPSPFFTNIEERGTVPNRFLFIVMPLYGENLYELMMNTNKDRKFSMATGLHLAEQTLAAIRDLHRNGFIHRDIKPSHFCIGREIDGQHHQVYLLDFGLCKRPRFVKKNDEAEEQMRKNAIHYRGVVKYASVHAHQGKNLGYKDDMESWWYMVLEFFLGALPWALLNKESEQDVLHLKRRITAPMVASVWRTTPETTAGFFDLLTIIREPKDVAEFVEYDRIADGIQKLFEKSKSNTQEPPDWDCMTDYKGPGYQQVLMIAPPEVGLKPEMDFGKSDPGAGGESGEQPKKEDVDKKKKKKKKSKKKGKSNNKTTSAEEQKGGKCAPPSRVRDERRETRDETVCEIETRSR", "soluble on expression in E. coli": "not soluble"}
{"sequence": "MGSDKIHHHHHHMDMTFKLQVFEGPLDLLLYLIEKNKVNIYDIPIVEITAQYMEYVNQMKKDNLDTLSEFLVMAATLLDIKSKMLLPKKEEEEQEQEDPRAELVQQLLEYKMYKCMANELKDRQLDAGKVWYKKKDIPDEVLAYEEPVNLEELVGDIRLSDLNRIFQSIMKRQEEKIDKVRSKFGKIEKEEVSLEEKMEYLTDYAASHKHFSFRGMLTASSSKVEVIVTFLAILELMKTGKLTIVQEHIFDDIRIESRIAA", "soluble on expression in E. coli": "not soluble"}
{"sequence": "MSLAENSLKIWNWSYYIDEALLDEFAAHAGIPRENIVYDEYDDPNVVLSRLEAGKSGYDVVIIPDYILDVAIKEGLLMELNKSLIPNYPHLDEKFKSTPYDPEGRYSAVYMWGTTGFGYRSDLAEKVTTLRQIFDPDYGYLKKYSKKITMLEEPIEVILACKAFLGKSVDDWSDETMQEVKEALIRQKPYLAAYAGANVYVEGLKNGSIYVAHAYNGDIVRLQDEEGVDQASFAIPEEGGTIWTDNMCIPKDAENVELAHEFINFMLDPEVSGRNSDYIKYASPVKEARNYVSEEVLENPAVYVPEDLMKKLWFTPQLDEEARRKIENLMIEVKASTEGHHHHHH", "soluble on expression in E. coli": "soluble"}
{"sequence": "MMVPPRPGFAPLSLESINDRMEMHLFLTSACILYHIYIRDNLLIYQEIWTKYWRGRLAESALKNEISALYLRLPFPRPPTLQSIAEQEVICKDAAPIYVYCSREAMLSHVQSKDLCQFGRANLLACTLAPYRTGVTIEMVRCLFKRLRDGNRVEAGTGEEDLSHFVAFLPTTAFRRGPRFYLGGENVQFFLREGGLELPCHIIAFGRALFSEILADGSSWDWKSVGESSRLNHVRASVELSRNVPTAETTDNWAEAALGTDAVYPVRPPNLTPTQDHPCKPLLSGNRVPNERHRPWKRFFKKLRSVSKHFYFNRLEHHHHHH", "soluble on expression in E. coli": "soluble"}
{"sequence": "MNGDDTFARRPTVGAQIPEKIQKAFDDIAKYFSKEEWEKMKVSEKIVYVYMKRKYEAMTKLGFKAILPSFMRNKRVTDFQGNDFDNDPNRGNQVQRPQMTFGRLQGIFPKIMPKKPAEEGNVSKEVPEASGPQNDGKQLCPPGKPTTSEKINMISGVLQRYCRFGSRPLQ", "soluble on expression in E. coli": "soluble"}
{"sequence": "ADPDTGVDTGAPYWTRPERMDKKLLAVPAANTVRFRCPAAGNPTPSISWLKNGREFRGEHRIGGIKLRHQQWSLVMESVVPSDRGNYTCVVENKFGSIRQTYTLDVLERSPHRPILQAGLPANQTAVLGSDVEFHCKVYSDAQPHIQWLKHVEVNGSKVGPDGTPYVTVLKSWISESVEADVRLRLANVSERDGGEYLCRATNFIGVAEKAFWLSVHGPRAAEEELVEADEAGSVHHHHHH", "soluble on expression in E. coli": "soluble"}
{"sequence": "MIMFNYQQTSQSCVKCGKCIPSCTIYNIHPDEVTSPRGFIDLLGAYQRGELELDKNAKDIFEKCFLCTNCTYVCPNLLPTDQVIENVRAEIAQKFGIAWFKRAYFFLLRNRWLMDWGLEHHHHHH", "soluble on expression in E. coli": "not soluble"}
{"sequence": "HHMAQANFGVVGMAVMGKNLALNVESRGYTVAIYNRTTSKTEEVFKEHQDKNLVFTKTLEEFVGSLEKPRRIMLMVQAGAATDATIKSLLPLLDIGDILIDGGNTHFPDTMRRNAELADSGINFIGTGVSGGEKGALLGPSMMPGGQKEAYDLVAPIFEQIAAKAPQDGKPCVAYMGANGAGHYVKMVHNGIEYGDMQLIAESYDLLKRILGLSNAEIQAIFEEWNEGELDSYLIEITKEVLKRKDDEGEGYIVDKILDKAGNKGTGKWTSESALDLGVPLPLITESVFARYISTYKDERVKASKVLSGPALDFSGDKKEVIEKIRKALYFSKIMSYAQGFAQLRKASEEFDWDLPYGTIAQIWRAGCIIRAEFLQNITDAFDKDSELENLLLDDYFVDITKRYQEAVRDVVSLAVQAGTPIPTFTSAISYYDSYRSENLPANLIQAQRDYFGAHTYERTDKAGIFHYDWYTED", "soluble on expression in E. coli": "soluble"}
{"sequence": "MGSDKIHHHHHHMKDLLNAFENKAPEIVFEWHDAETDATGWAVINSLRGGAAGGGTRMRKGLDKHEVVSLAKTMEIKFAVSGPHIGGAKSGINFDPADPRKNDVLNRWYKAVMPLLKSYYGTGGDLNVCEIKDVIPNTEEYGLWHPQEGIVNGHFHPSEELRIQKICQLRGGVTMPVVNPAYTPDPAKKYLVADLITGFGVSESVRHYYEIKGDSVAGKRVIVQGWGNVGGTAAYYLAANGAKVVGIIDRAAGLVSTEGLTFEQVKELLAKRVGNTLTGDNLLSAEDTQKLVWSVGADVFLPCAASRLVTREQVATLKDNGLGLIACGANVPFRDDNIFYGPTAEYADGVVDVIPDFIANCGMARAFNYLMSSKVDLDESAIFQDVSEVIRNALTESCAAATGKNHLLAASLKTVLHKLMH", "soluble on expression in E. coli": "not soluble"}
{"sequence": "MKQTVLKNNLQNLLESAENILLLQGPVGDFFLRLADWLTANGKTVHKFNFNAGDDYFYPPTQAHTVVFNDNYDAFPEFLQEYITQHHIQAVVCFGDTRPYHVIAKRIANENQASFWAFEEGYFRPYYITLEKDGVNAFSPLPRRADFFLEQFPKLAQQEYKAPTPVHGGFTPMAKNAIRYYIELFRNPRKYPDYIHHRAPNAGHYLKPWSLSILKRLNYYIEDIQIAKRVEAGKYGKFFIVPLQVFNDSQVRIHCDFPSVRSFLLHVLSSFAEHAPADTNIIIKHHPMDRGFIDYWRDIKRFIKEHPELKGRVIYVHDVPLPVFLRHGLGMVTINSTSGLSGLIHNMPVKVLGRAYYDIPGITDQNTLAEFWNHPTPPDKELFHAYRMYHLNVTQINGNFYSQVFFPNKKTSNSSTPVI", "soluble on expression in E. coli": "not soluble"}
{"sequence": "MTGPEPVPAGPPPDPTPPRRAGSVWAHVGQHFTEEAFDIVVIGAGRMGAACAFYLRQLAPGRSLLLVEEGGLPNEEGATILAPGVWTAQDIPAGQEAQAEWTREQLLGALGSGKTLEVEDRPLLHLLPAGEGSGLTPTLDALADFPEALALLDPARLPVARVDPRALTYRPGSLALLAAQQAIGQGAGLLLNTRAELVPGGVRLHRLTVTNTHQIVVHETRQIRAGVIIVAAGAAGPALVEQGLGLHTRHGRAYRQFPRLDLLSGAQTPVLRASGLTLRPQNGGYTLVPAIHHRDPHGYHPAGGSLTGVPTGLRRELLEDLVGLMDAVPALAGEGLELGRSSADVPGAWLALPGGRPDAPPQAEELAPGLHLLLGGPLADTLGLAAAHELAQRVSASLEHHHHHH", "soluble on expression in E. coli": "soluble"}
{"sequence": "MGSDKIHHHHHHMHLSNSPNSHDPDAQARFWFARQQGQTLSEAEQQQLAEWLAANPLHQDAWRRVEEDWLAIDRYRHALNDELKKARRNRPGQHKAAFQLKRRAAAAALLVAVCIPVLYQGMTGTTTYWNTLKGEQQQITLAGGSTLNLDTATRITVTQNWFTHHVQLHEGEIYLETASSDWHTLRVSAEHYEIRDIGTRFSVRYIPDQFMVEVAEGTVEVKKQGQLVLLQAGEVLSIITGSNEWRLAALPAGDIAHWRKGLLVFNAHRLHDVLHEIARYHTVQFDLADSAIGEIQVSGRFKLDELDTNLQIIADTLKINIEHPAPGRYRLGALRQSTR", "soluble on expression in E. coli": "not soluble"}
{"sequence": "MGSDKIHHHHHHMLCQFSFKNFKSYKETTTFDFQATSIPEFSESLLKSEKADALLPVGVIYGPNGGGKTNLLLALSCLISTVVKPIYELEKAREKIIIQQKISAAPFYFNEISRKMPTEFEVYFRQGKNEYRYNLSICGDDIVEESLYWKAIGGKRTGMVFDREGAEITLGASINKASINRSVNPKMPYLSFLAINYDIPVIVEVQKWFESCIVKNYANPIADRQIMFSDDESYRKRIVRALNDVDIDVSGYRYDEENHELYTQRMIEGKIYELSFNDESDGTKKMIAALPVILLALQEGRLVIIDELDAKLHPKLLRYVISLFKNKNVNKKGAQLLFTSHDMTTMKNTVFRRDEIWFAAENERHESEIYSLYEIRRENNERVNSTAAYDKQYLEGRYGADPYLTNMLAGGEWL", "soluble on expression in E. coli": "not soluble"}
{"sequence": "MSATAKAPYSKTFIRSCILYEVLQKKPVFEAYQKICRSLKERISYQEFDYWFYKFYNGNHDLEDEISDEQSLVNPLLDMSNNLSEKEWCRSFVQFFHGLPPRPNKKPAFSLQSMPRKVWQELCSKLEPCDRLVAKKVTRRFRQTIDEQDNLFNTLGICFEDDKTRIFFNEKTFHYTSVGNECRITLDLFTKEDAIKIKDILTRSDNFKYANFESGNFDPIEIANVFIPNYQSNHWPIINYMRHNKKFLLKITPMTFQIKKID", "soluble on expression in E. coli": "not soluble"}
